Laboratory results taken from patent publication US20250339554A1 (BROAD INSTITUTE, published 2025).

Key:
[1] = molecular target: the molecule itself; assay: TEM of capsids purified from E. coli; self-assembly
[2] = molecular target: the molecule itself; assay: size-exclusion chromatography of purified PNMA1; self-assembly
[3] = molecular target: the molecule itself; assay: electron microscopy; self-assembly
[4] = molecular target: the molecule itself; assay: SEC, iodixanol gradient and TEM of particles from HEK293 supernatant; self-assembly into capsids

Row | Protein | binding result [1] | binding result [3] | other results
1 | PNMA7B (other, Capsids were purified from E. coli; also called ZCCHC18) MASITACVGNSRQQNAPLPPWAHSMLRSLGRSLCPLVVKMAERNMKLFSGRVVPAQGKETFENWLIQVNEVLPDWSMSEEEKLKRLMKTLRGPAREVMRLLQAANPNLSVADFLRAMKLVFGESESSVTAHGKFFNTLQAQGEKASLYVIRLEVQLQNAIQAGILAEKDANQTRLQQLLLGAELNRDLRFRLKHLLRMYANKQERLPNFLELIKMIREEEDWDDAFIKRKRPKRSEPIMERAASPVAFQGAQPIAISSADCNCNVIEIDDTLDDSDEDVILVVSLYPSLTPTGAPPFRGRARPLDQVLVIDSPNNSGAQSLSTSGGSGYKNDGPGNIRRARKRKYTTRCSYCGEEGHSKETCDNESNKAQVFENLIITLQELTHTEERSKEVPGEHSDASEPQ | binds | – | –
2 | PNMA1 (other, Self-assembling capsid protein) MAMTLLEDWCRGMDVNSQRALLVWGIPVNCDEAEIEETLQAAMPQVSYRMLGRMFWREENAKAALLELTGAVDYAAIPREMPGKGGVWKVLFKPPTSDAEFLERLHLFLAREGWTVQDVARVLGFQNPTPTPGPEMPAEMLNYILDNVIQPLVESIWYKRLTLFSGRDIPGPGEETFDPWLEHTNEVLEEWQVSDVEKRRRLMESLRGPAADVIRILKSNNPAITTAECLKALEQVFGSVESSRDAQIKFLNTYQNPGEKLSAYVIRLEPLLQKVVEKGAIDKDNVNQARLEQVIAGANHSGAIRRQLWLTGAGEGPAPNLFQLLVQIREEEAKEEEEEAEATLLQLGLEGHF | – | – | binding result [2]: binds
3 | PNMA7A (other, also called ZCCHC12) MASIIARVGNSRRLNAPLPPWAHSMLRSLGRSLGPIMASMADRNMKLFSGRVVPAQGEETFENWLTQVNGVLPDWNMSEEEKLKRLMKTLRGPAREVMRVLQATNPNLSVADFLRAMKLVFGESESSVTAHGKFFNTLQAQGEKASLYVIRLEVQLQNAIQAGIIAEKDANRTRLQQLLLGGELSRDLRLRLKDFLRMYANEQERLPNFLELIRMVREEEDWDDAFIKRKRPKRSESMVERAVSPVAFQGSPPIVIGSADCNVIEIDDTLDDSDEDVILVESQDPPLPSWGAPPLRDRARPQDEVLVIDSPHNSRAQFPSTSGGSGYKNNGPGEMRRARKRKHTIRCSYCGEEGHSKETCDNESDKAQVFENLIITLQELTHTEMERSRVAPGEYNDFSEPL | – | binds | –
4 | PNMA6A (other) MAVTMLQDWCRWMGVNARRGLLILGIPEDCDDAEFQESLEAALRPMGHFTVLGKAFREEDNATAALVELDREVNYALVPREIPGTGGPWNVVFVPRCSGEEFLGLGRVFHFPEQEGQMVESVAGALGVGLRRVCWLRSIGQAVQPWVEAVRCQSLGVFSGRDQPAPGEESFEVWLDHTTEMLHVWQGVSERERRRRLLEGLRGTALQLVHALLAENPARTAQDCLAALAQVFGDNESQATIRVKCLTAQQQSGERLSAFVLRLEVLLQKAMEKEALARASADRVRLRQMLTRAHLTEPLDEALRKLRMAGRSPSFLEMLGLVRESEAWEASLARSVRAQTQEGAGARAGAQAVARASTKVEAVPGGPGREPEGLLQAGGQEAEELLQEGLKPVLEECDN | – | binds | –
5 | PNMA5 (other, Capsids were purified from E. coli) MALTLLEDWCKGMDMDPRKALLIVGIPMECSEVEIQDTVKAGLQPLCAYRVLGRMFRREDNAKAVFIELADTVNYTTLPSHIPGKGGSWEVVVKPRNPDDEFLSRLNYFLKDEGRSMTDVARALGCCSLPAESLDAEVMPQVRSPPLEPPKESMWYRKLKVFSGTASPSPGEETFEDWLEQVTEIMPIWQVSEVEKRRRLLESLRGPALSIMRVLQANNDSITVEQCLDALKQIFGDKEDFRASQFRFLQTSPKIGEKVSTFLLRLEPLLQKAVHKSPLSVRSTDMIRLKHLLARVAMTPALRGKLELLDQRGCPPNFLELMKLIRDEEEWENTEAVMKNKEKPSGRGRGASGRQARAEASVSAPQATVQARSFSDSSPQTIQGGLPPLVKRRRLLGSESTRGEDHGQATYPKAENQTPGREGPQAAGEELGNEAGAGAMSHPKPWET | binds | – | –
6 | PNMA2 (other, Self-assembling capsid protein; It was tested as particles from HEK293 supernatant (HA-tag pulldown) and as monomers and capsids assembled in vitro) MALALLEDWCRIMSVDEQKSLMVTGIPADFEEAEIQEVLQETLKSLGRYRLLGKIFRKQENANAVLLELLEDTDVSAIPSEVQGKGGVWKVIFKTPNQDTEFLERLNLFLEKEGQTVSGMFRALGQEGVSPATVPCISPELLAHLLGQAMAHAPQPLLPMRYRKLRVFSGSAVPAPEEESFEVWLEQATEIVKEWPVTEAEKKRWLAESLRGPALDLMHIVQADNPSISVEECLEAFKQVFGSLESRRTAQVRYLKTYQEEGEKVSAYVLRLETLLRRAVEKRAIPRRIADQVRLEQVMAGATLNQMLWCRLRELKDQGPPPSFLELMKVIREEEEEEASFENESIEEPEERDGYGRWNHEGDD | – | – | binding result [4]: binds
